These results are taken from the DeepSol protein solubility set.

A short description of the series: soluble on expression in E. coli; label from the status in PepcDB or PDB records.
Turning to “MDLSSKPQQQLLNSLPIAGELTVTGEMGVCYKECLKNHAANLGGHALDGCGEFMPSPTATSTDPSSLRCAACGCHRNFHRRDPSENLNFLTAPPISSPSGTESPPSRHVSSPVPCSYYTSAPPHHVILSLSSGFPGPSDQDPTVVRSENSSRGAMRKRTRTKFTPEQKIKMRAFAEKAGWKINGCDEKSVREFCNEVGIERGVLKVWMHNNKYSLLNGKIREIEHGLCLNTHSNDGDGSSSS”, the “soluble on expression in E. coli” value is recorded as “soluble”.
With “MDLVDKRDVLIGDFRPSLGFYGGVRVGVYLDTTEPKHAKIKGFAMETLKRSSKVWLQELRSNLNIFWGTIESEISKNGAASYIFPLQRCIFSFLCASLAGVDASVSPDIAENGWKTINTWLALQVIPTAKLGVVPQPLEEILLHTWPYPSLLIAGNYKKLYNFIDENAGDCLRLGQEEFGLTRDEAIQNLLFVLGFNAYGGFSVFLPSLIGRITGDNSGLQERIRTEVRRVCGSGSDLNFKTVNEMELVKSVVYETLRFSPPVPLQFARARKDFQISSHDAVFEVKKGELLCGYQPLVMRDANVFDEPEEFKPDRYVGETGSELLNYLYWSNGPQTGTPSASNKQCAAKDIVTLTASLLVADLFLRYDTITGDSGSIKAVVKAK”, the “soluble on expression in E. coli” value is given as “soluble”.
Turning to “MDNIQQEKLKNLIRSLEKSASPQEAEYLMGEILVPLLAEDGYSIQAVGDQRDFGVDFIARKDKHEEQFPEEIAIEYKHYRKAAVGLDVVHRVLGAAMSMGLSRAMVITNSRFTYAAREAIRRSSPVGVELLDIDALRSWIGRIEEVPSIDVVQVNIIRREFSRRLIELILKNPRYLDEIEWREMERLLAEVFEGLGFSVRLTPGSKDGGKDIILTCQVATKNHTYYVEVKHWRSGQRVGSGAITEFLNVIINEQIDGGLYLSTYGYCSNSIESLTEIQRKSLRFGTENKVVTLCQSYVKAMSGIWAPDKLLPEVLYDNTL”, the “soluble on expression in E. coli” value is given as “not soluble”.
The result for “MDNKLGLNKMNKTLIALAVSAAAVATGAYADGINQSGDKAGSTVYSAKGTSLEVGGRAEARLSLKDGKAQDNSRVRLNFLGKAEINDSLYGVGFYEGEFTTNDQGKNASNNSLDNRYTYAGIGGTYGEVTYGKNDGALGVITDFTDIMSYHGNTAAEKIAVADRVDNMLAYKGQFGDLGVKASYRFADRNAVDAMGNVVTETNAAKYSDNGEDGYSLSAIYTFGDTGFNVGAGYADQDDQNEYMLAASYRMENLYFAGLFTDGELAKDVDYTGYELAAGYKLGQAAFTATYNNAETAKETSADNFAIDATYYFKPNFRSYISYQFNLLDSDKVGKVASEDELAIGLRYDF” reads “not soluble”; that for “MDNKLSKIPTETFGEYIKRIRELRGYSQRKLSTLSDLSNTTICRIEKGSENGIENPDAETVVKLAEGLKLEKKALLIAAGYLDNENVEETTDLKECIRIALQKLGWINSYNDINEETITYVEFLLKKYGNKYKQIP”, “not soluble”; that for “MDNQPYNPLHGLTLKTIVTELEAYFGFETLGKTIKIKCFTDDPSIQSTLKFLRKTPWAREKVEQLYIKNKIKIQNSFESGDLDLEHHHHHH”, “not soluble”.
In the case of “MDNVTSSQLLSVRHQLAESAGLPRDQHEFVSSQAPQSLRNRYNNLYSHTQRTLDMADMQHRYMTGASGINPGMLPHENVDDMRSAITDWSDMREALQHAMGIHADIVDYKDDDDK”, the “soluble on expression in E. coli” value was “soluble”.
For the sequence MDPGKKKQHICHIQGCGKVYGKTSHLRAHLRWHTGER, the “soluble on expression in E. coli” value is given as “soluble”.
In the case of “MDQDYERRLLRQIVIQNENTMPRVTEMRRTLTPASSPVSSPSKHGDRFIPSRAGANWSVNFHRINENEKSPSQNRKAKDATSDNGKDGLAYSALLKNELLGAGIEKVQDPQTEDRRLQPSTPEKKGLFTYSLSTKRSSPDDGNDVSPYSLSPVSNKSQKLLRSPRKPTRKISKIPFKVLDAPELQDDFYLNLVDWSSLNVLSVGLGTCVYLWSACTSQVTRLCDLSVEGDSVTSVGWSERGNLVAVGTHKGFVQIWDAAAGKKLSMLEGHTARVGALAWNAEQLSSGSRDRMILQRDIRTPPLQSERRLQGHRQEVCGLKWSTDHQLLASGGNDNKLLVWNHSSLSPVQQYTEHLAAVKAIAWSPHQHGLLASGGGTADRCIRFWNTLTGQPLQCIDTGSQVCNLAWSKHANELVSTHGYSQNQILVWKYPSLTQVAKLTGHSYRVLYLAMSPDGEAIVTGAGDETLRFWNVFSKTRSTKESVSVLNLFTRIR”, the “soluble on expression in E. coli” value is on record as “soluble”.
The result for “MDQERARKRGITMGKQEFDGMSRISGLLTPELRATIEAVLAKLAAPGACNPDDQTPLVDDTPDADAVRRDTRSQAQRHHDGLLAGLRGLLASGELGQHRGLPVTVVVSTTLKELEAATGKGVTGGGSRVPMSDLIRMASNAHHYLALFDGAKPLALYHTKRLASPAQRIMLYAKDRGCSLEHHHHHH” reads “soluble”; that for “MDQKTRIVAAVIKGVKLPPRFRLRLLKEDPVRLELSLTPAYGKDPVTVGLVESLDLVARRDREGRIPRDLQGTWDWTVRHGKVSTGGWNPYLKEALQTMFETGLPAIVFEELTGEEYHPVDGTRHVR”, “not soluble”.
As to “MDQQEPSNNVDTSSILSDDGMETQEQSSFVTATIDLTVDDYDETEIQEILDNGKAEEGTDEDSDLVEGILNANSDVQALLDAPSEQVAQALNSFFGNESEQEAVAAQRRVDAEKTAKDEAELKQQEEAEDLIIEDSIVKTDEEKQAVRRLKINEFLSWFTRLLPEQFKNFEFTNPNYLTESISDSPVVNVDKCKEIVKSFKESESLEGLSQKYELIDEDVLVAAICIGVLDTNNEEDVDFNVLCDDRIDDWSIEKCVTFLDYPNTGLNSKNGPLRFMQFTVTSPASAILMLTLIRLREEGHPCRLDFDSNPTDDLLLNFDQVEFSNNIIDTAVKYWDDQKENGAQDKIGRRVLIKLTTVLKNAVGSRNEIIQLVNEKIPDFDGTEAAVNESFTSDQRTEIINSRAIMETLKAEMKLAIAEAQKVYDTKTDFEKFFVLTVGDFCLARANPSDDAELTYAIVQDRVDAMTYKVKFIDTSQIRECNIRDLAMTTQGMYDPSLNTFGDVGLRVACRQVISSSQFGKKTIWLTGTAAGRRRAHRSDFLIFFDNGTDAYVSAPTMPGEPGYEVASEKKSVFSLKEMIAKMNAAQIAIMVGQPVGKEGNLDYFLTFHWIRQSHRSAYIRDFMKEFPEWPLLKMPVGMRICLYNSLVDRRKKMVTVIGTDRAFAIVRHEAPNPLAPGNRCTDFPCNDRNHQHIDEKIYRGSHRLEGAAHKKHMISTNNNLSQRRKDQLQSQFEPTDMIRSMPERNHQQVVKKKTTGTNQNVASTNDAKSKREIEIRKKNQFLFNKIIVPIPVLTPLENLKAHAQCGPDCLQKMDADPYEARFHRNSPIHTPLLCGWRRIMYTMSTGKKRGAVKKNIIYFSPCGAALHQISDVSEYIHVTRSLLTIDCFSFDARIDTATYITVDDKYLKVADFSLGTEGIPIPLVNSVDNDEPPSLEYSKRRFQYNDQVDISSVSRDFCSGCSCDGDCSDASKCECQQLSIEAMKRLPHNLQFDGHDELYESSEKQNKFLKLFFFRVPHYQNRLLSSKVISGLYECNDQCSCHRKSCYNRVVQNNIKYPMHVSLFNDDTYQLLFFLQIFKTAQSGWGVRALTDIPQSTFICTYVGAILTDDLADELRNADQYFADLDLKDTVELEKGREDHETDFGYGGDESDYDDEEGSDGDSGDDVMNKMVKRQDSSESGEETKRLTRQKRKQSKKSGKGGSVEKDDTTPRDSMEKDNIESKDEPVFNWDKYFEPFPLYVIDAKQRGNLGRFLNHSCDPNVHVQHVMYDTHDLRLPWVAFFTRKYVKAGDELTWDYQYTQDQTATTQLTCHCGAENCTGRLLKS”, the “soluble on expression in E. coli” value is reported as “not soluble”.
The result for “MDRFMAGDLEVRCEVIYRRVKNPRIELRFDSLRLILPADFTGDPMEVLSSRSDWIQRKIHEFHEMLERASDMELEYRRDKELRSLVSGFLDHYSDVLGVEYGRVRFRRMRSRWGSCSSRGNLSFNTLLSHLPDRMVEYVVLHELAHLREMNHSPRFWGILESEMPDCTERRRMLRYYWARLYMEGLVDLEHHHHHH” reads “soluble”; that for “MDRKIVQLIHNFSGTEKLKAAVFSHDEQCFFDFVSFDELNSKLTGFLLFDSLEKLFKLVETIQQKRSWLYVDELWLINTATENQQLNEVSVWLVKKELAQVGVLTQLDTSLVKLLMASKNTDSALYNTYIKPVELQQFTQTPAPDNVNAEQSHLTLESTTDLNNSQLANTPALWEVEQTTQELLPTMDFSKFIDELDQITKNFSDLELEPLSFNEGFDEWNQE”, “soluble”; that for “MDRLDRKILYLLQENATLSVADIAKKVGLSTTPCWRRIQKLEEDGVIQRRVAVLSPEKVNAHVTVFVSIRTNTHSQEWLKRFSKIVQEFREVIEFYRMSGDIDYLLRVVVPNIEAYDLFYKKLIAKIDIRDVSSSFAMEQIKYTTELPLNYIKLHDKTSEQNS”, “not soluble”.
In the case of “MDRLSYAIGDKAVLNNIRVQFQPGSVTALLGPNGAGKSTLLKALCQEIPSAQGSIKLGHCQLVDWPRAELAKSLAVLPQHASLTFPFTVDEVVAMGLYPLTLSQKEGQQLVTKWLAEVGVLHLARRSYPTLSGGEKQRVQLARVLTQLSQSPFPPILLLDEPTSALDLAQQHKVLALAKNLAHKHAYTVIVVLHDLNQAARYSDRVIVLKQGEIVSEGTPNDALSIDIIRQVWDYEPEFIPAPQGDYPLIF”, the “soluble on expression in E. coli” value is “not soluble”.
The result for “MDRVTRYPILGIPQAHRGTGLVLDGDTSYTYHLVCMGPEASGWGQDEPQTWPTDHRAQQGVQRQGVSYSVHAYTGQPSPRGLHSENREDEGWQVYRLGARDAHQGRPTWALRPEDGEDKEMKTYRLDAGDADPRRLCDLERERWAVIQGQAVRKSSTVATLQGTPDHGDPRTPGPPRSTPLEENVVDREQIDFLAARQQFLSLEQANKGAPHSSPARGTPAGTTPGASQAPKAFNKPHLANGHVVPIKPQVKGVVREENKVRAVPTWASVQVVDDPGSLASVESPGTPKETPIEREIRLAQEREADLREQRGLRQATDHQELVEIPTRPLLTKLSLITAPRRERGRPSLYVQRDIVQETQREEDHRREGLHVGRASTPDWVSEGPQPGLRRALSSDSILSPAPDARAADPAPEVRKVNRIPPDAYQPYLSPGTPQLEFSAFGAFGKPSSLSTAEAKAATSPKATMSPRHLSESSGKPLSTKQEASKPPRGCPQANRGVVRWEYFRLRPLRFRAPDEPQQAQVPHVWGWEVAGAPALRLQKSQSSDLLERERESVLRREQEVAEERRNALFPEVFSPTPDENSDQNSRSSSQASGITGSYSVSESPFFSPIHLHSNVAWTVEDPVDSAPPGQRKKEQWYAGINPSDGINSEVLEAIRVTRHKNAMAERWESRIYASEEDD” reads “not soluble”.
Regarding “MDSINTRIAEELSALPSGRVQPQQVAAAVALLDEGSTVPFIARYRKEVTGSLDDTQLRMLEERLRYLRELEERRGAILASIEEQGKLTPELARDIKLADTKTRLEDLYLPYKQKRRTKGQIALEAGLGALADALFDDPTLVPESEAARFVDAEKGFADVKAVLEGAKYILMERFAEDATLLDKLRVFMKNEATLTARVVPGKEQEGAKFSDYFEHDEPLKSAPSHRALAIFRGRNEGVLSASLKVGEEAPGTLHPCEVMIAERFGLSNQGRAADKWLAEVVRWTWKVKLYTHLETDLFGELRDGAEDEAISVFARNLHDLLLAAPAGPRATLGLDPGLRTGVKVAVVDATGKLLDTATVYPHAPKNQWDQTLAVLAALCAKHQVELIAIGNGTASRETDKLAGELIKKYPGMKLTKIMVSEAGASVYSASELAAKEFPELDVSLRGAVSIARRLQDPLAELVKIEPKSIGVGQYQHDVSQLKLARSLDAVVEDCVNAVGVDVNTASAALLARISGLNSTLAQNIVAHRDANGAFRTRDELKKVSRLGEKTFEQAAGFLRVMNGDNPLDASAVHPETYPLVQRIAADTERDIRSLIGDSAFLKRLDPKKFTDETFGLPTVTDILKELDKPGRDPRPEFKTAEFQEGVESLKDLKPGMVLEGVVTNVTNFGAFVDIGVHQDGLVHISALSEKFVKDPYEVVKAGDIVKVKVMEVDIPRNRVGLSMRMSDTPGEKVEGQRGGRPTGSGQPRQERGAPRGQSAPPANNAMAALFANAKQLKKKHHHHHH”, the “soluble on expression in E. coli” value is listed as “soluble”.
